The results in this text go back to PMC11847629.

Data set [1] in a line: CHX chase, Western blot, JEG3. To be noted: control: untreated (respective controls).
The nature of data set [2]: GATA3 Western blot, JEG3. The conditions noted are these: control: untreated.
The nature of data set [3]: CHX chase, Western blot, JEG3, normoxia. To be noted: glycan lost; control: WT-G plasmid.
Data set [4] in a line: Hypoxic rise of GATA3 protein, Western blot, JEG3. The conditions noted are these: glycan lost; control: WT-G plasmid, 2% vs 21% O2.
Data set [5] is described as follows: GATA3 Western blot, JEG3; mRNA equal. To be noted: glycan lost; control: WT-G plasmid.
The nature of data set [6]: CHX chase, Western blot, JEG3, hypoxia. The conditions noted are these: glycan lost; control: WT-G plasmid under 2% O2.
Data set [7] in a line: GATA3 Western blot, primary human trophoblasts. To be noted: glycan gained; control: DMSO.
The nature of data set [8]: CHX chase, Western blot, primary human trophoblasts. The conditions noted are these: glycan gained; control: untreated (respective controls).

Consider “GATA3 (GATA binding protein 3): Ac45S (OGT inhibitor)”, for which, in data set [1] (glycan lost), the degradation_or_half_life result was “decreases”. The expression_or_secretion entry in data set [2] (glycan lost) is listed as “decreases”.

As for GATA3 (GATA binding protein 3): T322A-G, the degradation_or_half_life result in data set [3] is on record as “decreases”; in data set [6], “changes”. Further, in data set [4], the expression_or_secretion entry is recorded as “abolishes”. For the same substance, the “expression_or_secretion, fold_change” value in data set [5] is “decreases”.

As to “GATA3 (GATA binding protein 3): TMG (OGA inhibitor)”, the expression_or_secretion result in data set [7] and in data set [2] (glycan gained) was “increases” throughout. Besides, the degradation_or_half_life result in data set [1] (glycan gained) and in data set [8] was “increases” each time.
